# Measured values published in patent publication US20250345446A1 (Draupnir Bio ApS, priority 2022, published 2025).
# Residues, ends and D or L forms follow the SMILES beside them. No end group written: not given here. *: point of attachment. Biotin = O=C1N[C@H]2[C@H](CS[C@H]2CCCCC(=O)*)N1
# B1: Biotin-GGSGGGGFQLL-OH (peptide)
# peptide: Biotin-GGSGGGGFQLL-OH
# SMILES: CC(C)C[C@H](NC(=O)[C@H](CC(C)C)NC(=O)[C@H](CCC(N)=O)NC(=O)[C@H](Cc1ccccc1)NC(=O)CNC(=O)CNC(=O)CNC(=O)CNC(=O)[C@H](CO)NC(=O)CNC(=O)CNC(=O)CCCC[C@@H]1SC[C@@H]2NC(=O)N[C@@H]21)C(=O)O
# B2: Biotin-GGSGGGGRQLL-OH (peptide)
# peptide: Biotin-GGSGGGGRQLL-OH
# SMILES: CC(C)C[C@H](NC(=O)[C@H](CC(C)C)NC(=O)[C@H](CCC(N)=O)NC(=O)[C@H](CCCNC(=N)N)NC(=O)CNC(=O)CNC(=O)CNC(=O)CNC(=O)[C@H](CO)NC(=O)CNC(=O)CNC(=O)CCCC[C@@H]1SC[C@@H]2NC(=O)N[C@@H]21)C(=O)O
# B3: Biotin-GGSRQLL-OH (peptide)
# peptide: Biotin-GGSRQLL-OH
# SMILES: CC(C)C[C@H](NC(=O)[C@H](CC(C)C)NC(=O)[C@H](CCC(N)=O)NC(=O)[C@H](CCCNC(=N)N)NC(=O)[C@H](CO)NC(=O)CNC(=O)CNC(=O)CCCC[C@@H]1SC[C@@H]2NC(=O)N[C@@H]21)C(=O)O
# B4: Biotin-GGRQLL-OH (peptide)
# peptide: Biotin-GGRQLL-OH
# SMILES: CC(C)C[C@H](NC(=O)[C@H](CC(C)C)NC(=O)[C@H](CCC(N)=O)NC(=O)[C@H](CCCNC(=N)N)NC(=O)CNC(=O)CNC(=O)CCCC[C@@H]1SC[C@@H]2NC(=O)N[C@@H]21)C(=O)O
# B5: Biotin-RQLL-OH (peptide)
# peptide: Biotin-RQLL-OH
# SMILES: CC(C)C[C@H](NC(=O)[C@H](CC(C)C)NC(=O)[C@H](CCC(N)=O)NC(=O)[C@H](CCCNC(=N)N)NC(=O)CCCC[C@@H]1SC[C@@H]2NC(=O)N[C@@H]21)C(=O)O
# B6: Biotin-GGSGGFQLL-OH (peptide)
# peptide: Biotin-GGSGGFQLL-OH
# SMILES: CC(C)C[C@H](NC(=O)[C@H](CC(C)C)NC(=O)[C@H](CCC(N)=O)NC(=O)[C@H](Cc1ccccc1)NC(=O)CNC(=O)CNC(=O)[C@H](CO)NC(=O)CNC(=O)CNC(=O)CCCC[C@@H]1SC[C@@H]2NC(=O)N[C@@H]21)C(=O)O
# Biological target: T1, Sortilin-6His (Homo sapiens (Human), UniProt Q99523 78-755)
# T1 construct: In MST it was labelled non-covalently with RED-tris-NTA; also called soluble ectodomain of sortilin-6his; fluorescent sortilin-6his
# Test: MST on labelled sortilin-6his ectodomain; KD score: ++ <100 nM, + 100-2000 nM
# Details: not given
# T1 sequence (Q99523 78-755 V650M limits assumed): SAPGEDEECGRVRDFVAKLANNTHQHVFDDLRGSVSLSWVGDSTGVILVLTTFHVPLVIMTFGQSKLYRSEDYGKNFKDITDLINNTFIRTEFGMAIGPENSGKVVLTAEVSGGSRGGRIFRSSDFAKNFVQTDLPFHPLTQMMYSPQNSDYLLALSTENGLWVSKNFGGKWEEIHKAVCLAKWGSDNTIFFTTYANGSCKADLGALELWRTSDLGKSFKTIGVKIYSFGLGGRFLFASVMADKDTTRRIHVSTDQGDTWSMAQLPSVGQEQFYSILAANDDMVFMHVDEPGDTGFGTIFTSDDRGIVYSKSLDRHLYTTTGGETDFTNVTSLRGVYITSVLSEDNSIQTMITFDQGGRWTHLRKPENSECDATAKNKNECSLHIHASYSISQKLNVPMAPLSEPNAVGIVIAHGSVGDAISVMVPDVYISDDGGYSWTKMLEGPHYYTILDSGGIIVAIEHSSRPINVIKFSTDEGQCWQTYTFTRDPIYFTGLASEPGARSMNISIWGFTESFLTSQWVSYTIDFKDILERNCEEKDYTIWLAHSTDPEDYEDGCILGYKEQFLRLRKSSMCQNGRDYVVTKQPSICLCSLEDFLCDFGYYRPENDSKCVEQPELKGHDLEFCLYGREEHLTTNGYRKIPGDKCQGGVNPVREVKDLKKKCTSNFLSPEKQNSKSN
row,Molecule,KD [nM]
1,B1,< 100
2,B2,< 100
3,B3,100 to 2000
4,B4,< 100
5,B5,< 100
6,B6,< 100

# Test system: HEK293 cells expressing full length sortilin receptor
# Test: Cellular uptake of NA650 in HEK293/sortilin cells
# Format: cell-based
# Details: Homo sapiens, HEK293; SEQ ID NO.: 147 (300 nM) and NA650 (100 nM), 3 h incubation, competitor titrated; read-out: IC50 of inhibition of degrader induced internalization of NA650
# Description: Cellular uptake of NA650 was investigated in HEK293 cells expressing full length sortilin receptor (Petersen et. al.). Cells were seeded in poly-L-lysine coated 96-well plates (Perkin Elmer) (40K/well) in 50 μL culture medium (DMEM (Lonza)+10% FBS (SigmaAldrich)+1% penicillin-streptomycin (SigmaAldrich)+1% GlutaMAX (Gibco)+100 μg/mL Zeocin (Invitrogen)) and incubated overnight in cell incubator (37° C., humidified, 5% CO2).
# Culture medium was replaced with assay medium (DMEM (Lonza)+10% fetal bovine serum (SigmaAldrich)+1% penicillin-streptomycin (SigmaAldrich)+1% GlutaMAX (Gibco)) containing NA650 (Invitrogen) (100 nM) (Thermo Fischer) and peptidic bifunctional compounds (9.8 nM to 10 μM). Cells were incubated for 3 h in cell incubator before they were washed in dPBS (Bionordika). The DyLight650 signal in the cell layer was detected using a fluorescence plate reader (BMG Labtech Clariostar).
# Cellular uptake of NA650 was investigated in HEK293 cells expressing full length sortilin receptor using a methodology analogous to example 3.
row,Molecule,IC50 [nM]
1,"O=C(O)CCCC[C@@H]1SC[C@@H]2NC(=O)N[C@@H]21 [biotin, reference compound]",56

# Same assay, conditions: SEQ ID NO.: 147 (300 nM) and NA650 (100 nM), 3 h incubation, competitor titrated; read-out: IC50 of inhibition of degrader induced internalization of NA650
row,Molecule,IC50 [nM]
1,"Cc1cccc(NC(=O)c2ccc(C(F)(F)F)cc2C(=O)O)n1 [AF38469, reference compound]",589

# Biological target: T1, Sortilin-6His
# Test: MST on labelled sortilin-6his ectodomain; KD score: +++ <25 nM, ++ 25-250 nM, + 250-2500 nM, 0 >2500 nM
# Details: not given
row,Molecule,KD [nM]
1,H-FYIL-OH [H-FYIL-OH],250 to 2500
2,H-KQLL-OH [H-KQLL-OH],25 to 250
3,H-PQLL-OH [H-PQLL-OH],25 to 250
4,H-PYIL-OH [H-PYIL-OH],25 to 250
5,H-PYLL-OH [H-PYLL-OH],250 to 2500
6,H-RQFL-OH [H-RQFL-OH],250 to 2500
7,H-RQYL-OH [H-RQYL-OH],250 to 2500
8,H-RYFL-OH [H-RYFL-OH],250 to 2500
9,H-RYIL-OH [H-RYIL-OH],250 to 2500
10,H-RYYL-OH [H-RYYL-OH],25 to 250
11,IQLL,250 to 2500
12,LQLL,250 to 2500
13,GGSGGGGSGGGGSGGRQLL-OH [GGSGGGGSGGGGSGGRQLL-OH],25 to 250
14,REAPRWDAPLRDPALRQLL,< 25
15,REAPRWDAPLRDPALFQLL,< 25
16,REAPRWDAPLRDPALRYLL,< 25
17,REAPRWDAPLRDPALRYYL,25 to 250
18,REALRWDAPLRDPAPRQLL,< 25
19,PYILKRQLYENKPRRPYIL,< 25
20,LYENKPRRPYIL,25 to 250
21,APLRDPAPRQLL,25 to 250
22,WSGPIGVSWGLRAAAAGFQLL-OH [WSGPIGVSWGLRAAAAGFQLL-OH],< 25

# Biological target: T2, soluble ectodomain of sortilin-6his (Homo sapiens, UniProt Q99523, V650M)
# T2 construct: the soluble ectodomain of sortilin-6his is measured by microscale thermophoresis (MST)
# Test: MST binding to soluble ectodomain of sortilin-6his
# Details: Table 1; biotin-linker-peptide bifunctional compounds; MST; read-out: KD score, binding to sortilin (Kd)
row,Molecule,Kd [nM]
1,CC(C)C[C@H](NC(=O)[C@H](CC(C)C)NC(=O)[C@H](CCC(N)=O)NC(=O)[C@H](CCCNC(=N)N)NC(=O)CNC(=O)CNC(=O)CNC(=O)CNC(=O)[C@H](CO)NC(=O)CNC(=O)CNC(=O)CCCC[C@@H]1SC[C@@H]2NC(=O)N[C@@H]21)C(=O)O [compound 150] (Biotin-GGSGGGGRQLL-OH),< 100
2,CC(C)C[C@H](NC(=O)[C@H](CC(C)C)NC(=O)[C@H](CCC(N)=O)NC(=O)[C@H](CCCNC(=N)N)NC(=O)[C@H](CO)NC(=O)CNC(=O)CNC(=O)CCCC[C@@H]1SC[C@@H]2NC(=O)N[C@@H]21)C(=O)O [compound 152] (Biotin-GGSRQLL-OH),100 to 2000
3,CC(C)C[C@H](NC(=O)[C@H](CC(C)C)NC(=O)[C@H](CCC(N)=O)NC(=O)[C@H](CCCNC(=N)N)NC(=O)CNC(=O)CNC(=O)CCCC[C@@H]1SC[C@@H]2NC(=O)N[C@@H]21)C(=O)O [compound 153] (Biotin-GGRQLL-OH),< 100
4,CC(C)C[C@H](NC(=O)[C@H](CC(C)C)NC(=O)[C@H](CCC(N)=O)NC(=O)[C@H](CCCNC(=N)N)NC(=O)CCCC[C@@H]1SC[C@@H]2NC(=O)N[C@@H]21)C(=O)O [compound 154] (Biotin-RQLL-OH),< 100

# Same assay, conditions: Table 3; monofunctional peptides; MST; read-out: KD score, binding to sortilin (Kd)
row,Molecule,Kd [nM]
1,CC[C@H](C)[C@H](NC(=O)[C@H](CC(C)C)NC(=O)[C@H](CCC(N)=O)NC(=O)[C@@H](N)CCCNC(=N)N)C(=O)O [compound 163] (H-RQLI-OH),> 2500
2,CC(C)C[C@H](NC(=O)[C@H](CCC(N)=O)NC(=O)[C@@H](N)CCCNC(=N)N)C(=O)N[C@@H](Cc1ccccc1)C(=O)O [compound 164] (H-RQLF-OH),> 2500
3,CSCC[C@H](NC(=O)[C@H](CC(C)C)NC(=O)[C@H](CCC(N)=O)NC(=O)[C@@H](N)CCCNC(=N)N)C(=O)O [compound 165] (H-RQLM-OH),> 2500
4,CC(C)C[C@H](NC(=O)[C@H](CCC(N)=O)NC(=O)[C@@H](N)CCCNC(=N)N)C(=O)O [compound 166] (H-Arg-Gln-Leu-OH),> 2500
5,"CC(C)C[C@H](NC(=O)[C@H](CCCNC(=N)N)NC(=O)[C@H](C)NC(=O)[C@H](C)N)C(=O)O [compound 196, AARL-OH] (H-AARL-OH)",250 to 2500
6,APLRDPAPRQLL-OH [compound 57],25 to 250
7,GGSGGGGSGGGGSGGRQLL-OH [compound 167],25 to 250
8,H-GVSWGLR-OH [compound 52],> 2500
9,H-ITVDPRLFKKRRLRSPRVLF-NH2 [compound 48],> 2500
10,H-WSGPIGVSWGLRAAAAGFQLL-OH [compound 179],< 25
11,LYENK-NH2 [compound 65],> 2500
12,"PIPLV [compound 197, PIPLV-OH]",> 2500
13,REALRWDAPLRDPAPRQLL-OH [compound 54],< 25
14,REAPRWDAPLRDPALFQLL-OH [compound 58],< 25
15,REAPRWDAPLRDPALRYLL-OH [compound 59],< 25
16,REAPRWDAPLRDPALRYYL-OH [compound 61],25 to 250
17,TGGFM-OH [compound 62],> 2500
